# From publication PMC11931385, “Structural and functional analysis of cancer-associated missense variants in the retinoblastoma protein pocket domain” (The Journal of Biological Chemistry, 2025)
# No end group written: not given here. TMR = tetramethyl rhodamine dye
# Tests used:
# Assay in all cases: fluorescence polarisation; 37 °C, after the 25 °C reading ramped over 7 min to 37 °C and 2 min incubation; unlabeled Rb^P against 1.5 nM TMR-E2F1^TD or 7.5 nM TMR-E7^LxCxE; 25 mM Tris pH 8.0, 200 mM NaCl, 1 mM DTT, 0.1% Tween-20; apparent Kd
# Conditions in all cases: both partners purified
# Rb^P R611S = biological target: T1, Rb^P R611S (human, UniProt P06400 380-788, R611S)
# T1 construct: also called variant 38
# T1 sequence (looked up): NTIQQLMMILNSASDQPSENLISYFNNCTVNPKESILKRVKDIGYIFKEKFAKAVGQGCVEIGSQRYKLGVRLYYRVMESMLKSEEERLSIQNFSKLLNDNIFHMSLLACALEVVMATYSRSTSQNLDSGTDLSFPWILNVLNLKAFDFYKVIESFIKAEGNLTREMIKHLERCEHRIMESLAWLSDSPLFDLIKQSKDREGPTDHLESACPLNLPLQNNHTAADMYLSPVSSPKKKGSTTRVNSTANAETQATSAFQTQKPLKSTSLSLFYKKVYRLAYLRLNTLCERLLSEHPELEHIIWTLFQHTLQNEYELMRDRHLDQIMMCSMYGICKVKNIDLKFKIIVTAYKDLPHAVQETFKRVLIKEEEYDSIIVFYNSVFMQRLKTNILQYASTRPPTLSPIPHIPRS
# Rb^P R451C = biological target: T2, Rb^P R451C (human, UniProt P06400 380-788, R451C)
# T2 construct: also called variant 5
# T2 sequence (looked up): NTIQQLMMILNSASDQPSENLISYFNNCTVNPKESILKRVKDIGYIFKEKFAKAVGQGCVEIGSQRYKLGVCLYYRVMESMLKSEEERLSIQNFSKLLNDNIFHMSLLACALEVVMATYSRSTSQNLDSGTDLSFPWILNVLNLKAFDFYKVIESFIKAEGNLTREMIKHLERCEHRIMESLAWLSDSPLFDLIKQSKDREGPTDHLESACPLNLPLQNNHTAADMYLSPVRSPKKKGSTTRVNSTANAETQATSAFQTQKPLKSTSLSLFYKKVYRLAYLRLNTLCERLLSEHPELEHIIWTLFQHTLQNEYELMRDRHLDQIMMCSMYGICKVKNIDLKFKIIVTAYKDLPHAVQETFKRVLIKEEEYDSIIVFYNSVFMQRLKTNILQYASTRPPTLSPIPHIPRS
# Rb^P M704V = biological target: T3, Rb^P M704V (human, UniProt P06400 380-788, M704V)
# T3 construct: also called variant 66
# T3 sequence (looked up): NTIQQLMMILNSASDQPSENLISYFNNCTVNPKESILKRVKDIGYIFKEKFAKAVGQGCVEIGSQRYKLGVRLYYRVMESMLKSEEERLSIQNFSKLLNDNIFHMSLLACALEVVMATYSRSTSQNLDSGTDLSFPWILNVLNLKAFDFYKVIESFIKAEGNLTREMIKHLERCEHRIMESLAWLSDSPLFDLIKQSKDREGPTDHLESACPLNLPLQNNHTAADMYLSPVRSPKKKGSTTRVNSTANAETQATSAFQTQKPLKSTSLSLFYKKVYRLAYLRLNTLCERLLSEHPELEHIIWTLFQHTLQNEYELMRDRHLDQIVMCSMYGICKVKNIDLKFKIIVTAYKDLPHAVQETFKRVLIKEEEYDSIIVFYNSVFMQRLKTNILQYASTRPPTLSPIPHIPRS
# Rb^P S751C = biological target: T4, Rb^P S751C (human, UniProt P06400 380-788, S751C)
# T4 construct: also called variant 71
# T4 sequence (looked up): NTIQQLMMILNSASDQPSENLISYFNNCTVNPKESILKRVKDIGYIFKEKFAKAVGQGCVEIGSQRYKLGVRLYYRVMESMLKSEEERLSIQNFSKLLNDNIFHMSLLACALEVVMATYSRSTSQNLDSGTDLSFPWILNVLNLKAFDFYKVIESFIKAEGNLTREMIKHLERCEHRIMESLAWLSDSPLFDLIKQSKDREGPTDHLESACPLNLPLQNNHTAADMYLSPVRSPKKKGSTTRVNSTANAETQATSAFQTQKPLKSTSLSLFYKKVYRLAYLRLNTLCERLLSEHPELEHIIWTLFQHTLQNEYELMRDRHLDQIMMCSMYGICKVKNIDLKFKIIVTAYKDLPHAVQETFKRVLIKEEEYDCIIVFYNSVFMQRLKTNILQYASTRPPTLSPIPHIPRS
# Rb^P A490V = biological target: T5, Rb^P A490V (human, UniProt P06400 380-788, A490V)
# T5 construct: also called variant 17
# T5 sequence (looked up): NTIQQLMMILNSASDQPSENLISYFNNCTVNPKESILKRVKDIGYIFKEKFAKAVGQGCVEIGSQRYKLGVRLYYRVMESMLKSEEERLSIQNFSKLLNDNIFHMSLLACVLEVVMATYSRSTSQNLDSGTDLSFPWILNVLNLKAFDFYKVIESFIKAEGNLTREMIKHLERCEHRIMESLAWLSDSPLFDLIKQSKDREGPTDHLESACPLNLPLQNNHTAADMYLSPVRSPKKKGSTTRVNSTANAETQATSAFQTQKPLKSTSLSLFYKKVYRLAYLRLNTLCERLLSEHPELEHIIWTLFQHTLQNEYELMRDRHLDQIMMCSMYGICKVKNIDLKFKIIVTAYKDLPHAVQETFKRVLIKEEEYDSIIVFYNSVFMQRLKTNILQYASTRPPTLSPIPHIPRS
Binder,Kd (Rb^P R611S),Kd (Rb^P R451C),Kd (Rb^P M704V),Kd (Rb^P S751C),Kd (Rb^P A490V)
"{TMR}-GEGIRDLFDCDFGDLTPLD (also called E2F^TD; source: synthetic peptide, bought: GenScript) [TMR-E2F1^TD, peptide of the E2F1 transactivation domain]",30 nM,51 nM,129 nM,137 nM,87 nM
"DLYCYEQLN (also: TMR label, position not given here, source: synthetic peptide, bought: GenScript) [TMR-E7^LxCxE, LxCxE peptide of the E7 oncoprotein from HPV]",15 nM,19 nM,51 nM,98 nM,33 nM
